Source: the DeepSol protein solubility set

Assay: soluble on expression in E. coli; label from the status in PepcDB or PDB records

Soluble on expression in E. coli, not soluble:
MGSDKIHHHHHHMLSDITVRYKLNNSIKDSRFETEHLAKYHLSFQVNFELFRICIVDGDSNRCLFLEDYTLADIYTTNDLLEQLDILFEDHILIKAGFWKSITVGFKNTQFSLIPEALFEKDYLKEYLTLNTTLDREPDEEYHFYKQRQTEAVNVFATNQRLTSWFNKTYPLKQVRYVHHTASMIEGIMLQKDKNAAEKSVFIQVEQYFLTIIVKQGKKLIFCNSFTFNTSEDFVYFILFVFDQLELNPEKCPVVVFGEITHDSESFSKLYKYIRHLTFGSKPEFVRFGYQFDEVFDHRYFDLYNMHLCQG
MGSDKIHHHHHHMLSKLWKRQAPQMVGIDIGSHEIKAILLSKTADGYKIQNHASVPVRKGAVVDHDIRDTEAVIESLRQIRRGLPKSLKFAAVAVSGSAVMTKVIYMDAALNEEEMEAQIEIEADNLIPYSLDEVSIDFERLNPNITDPTKVNVLLSACRTENIDSRVDSLDAIELDVKVVDVEAYALGRSAELIYAQLPDGAKAKSIAMVDIGANMTTFSVVENGDTTFIREQAFGGELFTQSIVSFYGMPHDEAERAKISGQLPRNYMFEVLSPFQMQLLQQIKRTLQIYCTASGREKVDYIVLCGGTAKLEGMVELLTNELGTHTIVADPFQGCLHADDVMKGQLQPNISKYMVACGLALRSYAQWRT
MGSDKIHHHHHHMLSRTADHLFWMSRYTERAENTARMLNVSYETSLLPQSADVAQESWLGLLSISELIPAYTARHGEVTREGVLEFMVRDGDNPSSILSCLRAARENARAVRGALTTEIWETQNQTWLELHRQLQGRDFERDPGAFFEWVKYRSHLSRGVTLGTMLQDEAFHFLRLGTFLERADNTARLLDVKFHAVQSDFHGSAMRERGRAAPQEFDFYHWSAILRSVSAFEVYRKVYRDVITPERVADLLMLRADMPRSLHASLREVADNLAVVANDQSAETQRKAGRLLADLRYGRIDEILATGLHAYLTQFLDRVNDLGAGISRDFLVPVPA
MGSDKIHHHHHHMLTCDVFFASKNKKGEEVCGDSIKVKRESEKIVVSVSDGLGSGIKASILSTLTATIASTMLMNGLPVTDVFRTILATLPICRVRKISYSNLCSVVCDFKNNTCTVVEYEFPVVMLFKGERRVFPEKQGLEIEGKKVFVWQFRSEAGTLLLLATDGLSQAGMGTDLFPLGFGVENIEKEMKHLLKNHVSPENIVRHFVKLAEKLDQEVRGDDTLVACLNFREKRILNLFVGPPEDRKKDEEYVRTFLSLPGKKIVCGGTTGQIFERVTGKKVEIDLYTLSENSPPVGYMEGIDLMTEGIVTLTQVFRYLEGQSEELGYGAKFIVKSLLEADEINFFVGRAINPAHQNPLFSHDISLKFRLVKDIAQILREKGKIVNVQYC
MGSDKIHHHHHHMLYTENLQSLIDSGKGYNVEFKVRVPSKVRELTEEICAFANADGGYLLIGVDDNGQVVDTNLENDKRSAIQGSISEISPALHCELYSVNVGNKTVWVIDVPSGKDKPYIFSGSIYVREGANSQKLRTAEEMRSFFQECNKIFFDHIPCHWFNIYTDADEQMIKGFRTEAKLSPSTPDKQIFENLELFIENGTAKNGAAMFFGKQPERKFPHAVTRCVLFKGTNKVYIIDDKTFGGSLYQQYLQAMSWLESKLQVAYKIEGAGPREEIWEIPLTVFKEAIINALSHRDYYEQGASIMIEMFDDRVEISNPGGLLPVVAKDFGHKSMTRNPLIFGLFTRMHLVERVASGIPRMQEAMREANLPEPEFHTEGMFTVVFKRKNTNSANRDIVNGIINGIVNENEQTILNLLKAKPGLNASEVAESLSKSWRTTMRYLKSLNDKGLVEFRGAPKTGGYYLTRNI
MGSDKIHHHHHHMMNNLKRILKNPRLILIFILSRYCHWIDDKTYLCIMYFIYFGKLLHLNSPRTFNEKLQWLKLYDRHPEYTQMVDKATVKEYVASIIGEKYIIPTLGVWENFDDIDFENIPSSFVLKCTHDSGGVVICENKNLFDVEKARSKLLKSMKKNYYYVGREYPYKDIKPRIIAEKYMVDESHIELKDYKIHLFHGIPNFIQVDFDRFTSHHRNLYTIDWKPLGKAIKYPAVYEREIDKPIVLDEMLELAMKLAFNIPYVRADFYCIGNKVYFGELTFYHGSGFETFSPKSFDEELGALIKLS
MGSDKIHHHHHHMMQPVINAPEIATAREQQLFNGKNFHVFIYNKTESISGLHQHDYYEFTLVLTGRYFQEINGKRVLLERGDFVFIPLGSHHQSFYEFGATRILNVGISKRFFEQHYLPLLPYCFVASQVYRTNNAFLTYVETVISSLNFRETGLEEFVEMVTFYVINRLRHYREEQVIDDVPQWLKSTVEKMHDKEQFSESALENMVALSAKSQEYLTRATQRYYGKTPMQIINEIRINFAKKQLEMTNYSVTDIAFEAGYSSPSLFIKTFKKLTSFTPKSYRKKLTEFNQ
MGSDKIHHHHHHMMRNIAICSNEVENLILGQDSVKTIDMNGILVRCGLLRTENIYFDRNAVSNRFKVLVKKKAFSCNYRDKSIIFRITKQAPENTFYVVGSDFVGEVIATGSEVTELKVGDRVIANNAYPESDALEAFPGIPSNHASKEYQVFHQAKLIKIPLEMSDEIAAAFSIGGQTSYSIVRKFNPTKGSNILVTAAKSNTSLFVINALKKYDVNIYATSTSRLFEEELRAMGVKKVILVESKPNSLLENQSIQNIVAETGGFDCVFDPFFDLYLGQSVELMKIGAKYITCGLYDQYFELINQSFTPFSLNTNHIMGSVMTKNLQIIGNCLGLTEDLKNAIQDYALGHLNVVIDSVFTGKDIEGFFERTYNAKDRFGKVVYKYE
MGSDKIHHHHHHMMTDTHASKNTSTDRSTLDEETVPGGGHTSFILKRGQILQITDVEGGGNVGLLLFNAHQTSERLNLPDTLKGQHTAKLTAGYCLYSDMGRVLAAIVTDTCGWHDSMGGVLNAQEVHEKYGQGRYQELRNGFFRNGMDNLLVEMGKWNLNLQDLLMTINLFSKVTVDAQGQFRFHANHSQAGNYIELYAPMDTLVVLTALQHPMDPNPTYAPRPIALTWSRAEGEDVAKYCREFREENARAFHNTERGYL
MGSDKIHHHHHHMMTYYFIADLHLNESQPQITHQFLQFMQQKAPLAQAVYILGDFFDFWIGDDEQSVLISQVKLALKKLTASGVKCYFICGNRDFLLGQTFAQQTGIQLLADYHLLDLFGERTLLCHGDTLCIDDIKYQQFRRRVHQKRLQKLFLWLPLTLRIKIAQKIRRKSKQDKKNKSADIMDVNQAFTAQKVHQYGATHLIHGHTHRQAVHFEQNFTRIVLGDWRPDRSSILKVDEKGFEFL
MGSDKIHHHHHHMNAGLDGLLLLRAPNLAYATGLFLSANERPMGVWLPMDGDPILMLPGLERENAKGTGLTDLRFYDEFPGKEPPVLWMLDQIGRKHIGIDALDAALLDAARDKAVRIDLTDHAMAARTIKEPEEIALTVEAASFADLFLTRLHAAAGDIINQGGTEADLMADAMAHARGALMAKHKQAFSGTPMGITASVHSGPRAALPHGAVLERVPQPGETLIAGIGASLGGYHAESGVTLIVGSISAEQRQIMAAMKACNDAGVAACGARTTCTQANDAALDALRAAGLGDTIRHRIGHGMGLEGHEDPWLAPGDPTPIQTHMIFSNEPGVYRPGIDGYRTINTMIVTEDGVDIPSRFQANTPIDARVIAL
MGSDKIHHHHHHMNDPAHPPIPPVSKRDAPAFSDLQHRATSASAFTQGSTTYHDVRPGYPAEAVELARGFGRVLDVGAGTGKLTSELTADQVLALDPSMDMLRVFRSALPAVPCWQATAEHTGIRDNAVDLITCAQTWHWVDVTAASAEFDRVIAPEGAVLLVWNNLDTSIAWVHRLSRIMHAGDVLKPGFTPETAAPWIIDREIRTTWNQHLTPEEIIQLAHTRSYWLNASEKIKERVDQNLQWYLYEHLGFSPDNPVELPYRCDAFLLSRSGTLAGRSSNL
MGSDKIHHHHHHMNDYDNNSNINEDAWNKETYSAWVKRFGTPDTAAKKISKDPSKILSVLHEKLGDVKGKKIMNIMGSNGSKAVALALLGADVTVVDFSKGNMDYALDLAKEADVKIDYILSDILKLPEDKLTADYDIVFAEMGIIHYFIDLKPFIKTINRLLKEGGLFVLRDFHPVSTKLITSRGSTAKVRKHKVTGDYFDTSLEEKDAAFSKYLIDNKEPEKVLLRKWTLGEIVTSVAEGGFKIKKLDEEPNLSCDNFDKGIPKSFTLTSEKLS
MGSDKIHHHHHHMNELDIIKIISKNLSYSNGVEKGIGDDCAVFKFENQHLVVTTDMMFKSTHFPSILTPFQIGMRVVTANVSDIAAMCAKPLGMVISMGFDNPKKTFIDEMSKGINFISKEYGCPIAGGDTNKAPELTLSGTAFGITDNPIYRGGIIGEDICITGDVGKVNCALKLLEMKDKGILGNIEFEKTMSEFPRIMKKLAEPKARVKEGLLLNKIITSCCDISDGLSKDLNYTGNFEINSKNLLNSVSREVIEFCEKFDMDLLKTVLNSGEEFELLFTTPDFKKAEEKLKDINSVTKIGKVVESGKTVDGISVELEGYVHKW
MGSDKIHHHHHHMNETGLLDAYGTEEKEAYIGVIASIATADRVATEDELEYLNALSEAVGINPDVAEAAAKDRSDESLSKYLNALKGSDLRFSLITDIVSFARSDGRYTADEEEKIKNSCRYLGITDEQVTVLEELVEKSNILITIPEEATDEGFFEKNGFSQMLKKANIPLISIVKGLLGLAAPFVLSKMVRSRSLSGSPAAGGLGGQLGGTVLGTFQAGRIGGLGSILANLNGIRGYADIGTILKKAIDKKEINS
MGSDKIHHHHHHMNEVIENVKEYYGKILHSTADLQSKACCCSPDSMPKEVKKALIFIADEVINRYYGCGSPLPPLLEGMTVLDLGCGSGRDVYVAAQLVGEHGRVIGVDMTQEQLDVAKKYEDEQRQRFGYAKSNVKFLSGYIEDLRAAGISDSSVDIVISNCVVNLSPDKEKVFAEIWRVLKPGGELYFSDVFADRRIPEYLAADPVLRGECIGGALYYEDFRRIMQRVGFTDFRYKSIRNIDLDNEAIIEKVGFANFTERTVRAFKLDDLEDICEDYGQIAVYNGSIASSPHFFDLDDHHRFFTGKPLLVCGNTAAMLAKTRFASAFRVIGNRSTHYGVFGVCGGKSETNCFDTGSSCGC
MGSDKIHHHHHHMNFIDTLKSVDLILSTGEVPLIVGESGIGKTALANKLAKENDWSLIVIDGNLLKEGEIGGLPTIESYVGVNSNGYKTEKKTTVYAVHNKLREIDEEISKSKTVLLFIDEINRCEHTVQQELMNLILNREINGYKLHDDVKILAAMNPSSKYGSDFDYQVVDMDAAQENRFVWLNMESDHTQWIKWAIDEGIERKVIEFISTFPEYLHKINEDDVRATPRSYERVSKIYKVYKEKNNSIPRAVFLNVVKGNVGKVIAEEFISFIESNFEPLISYEDVFLGESIDESIVERVKNESHTRLYLSAMNILKDLELNIKNDKYESNHYINRFIEFLKMYPVDLMIGIMKDIRNSYIEVYKKAIENEEFVKSYFESYSLIRG
MGSDKIHHHHHHMNFNSDLLNLNSKSPAFSITIEGKDVTTVMDARLMSLTLTDNRGFEADQLDLELDDADGQIVLPRRGAVIHLALGWKGQPLFPKGAFTVDEIEHSGAPDRLTIRARSADFRETLNTRREKSWHQTTVGEVVKEIAARHNLKVALGQDLTDKALDHMDQTNESDASFLMKLARQYGAIASVKDGNLLFIRQGQGRTASGKPLPVITITRKAGDGHRFTLADRGAYTGVIASWLHTREPRKKETTSVKRRRKKATTPKEPEAKQGDYLVGTDENVLVLNRTYANRSNAERAAKMQWERLQRGVASFSLQLAEGRADLYTEMPVKVTGFKQPIDDAEWTITTLTHSVSPDNGFTTSMELEVKIDDLEIE
